Reference: article PMC9579014 (2022)
Substitutions are numbered along the chain they refer to. Blank lines part the entries; values can stand above or below the molecule they belong to.

Experiments:
[1] = molecular target: legumain (Homo sapiens) (UniProt Q99538); settings: cited from earlier work
[2] = molecular target: T1, legumain AEP catalytic domain (Homo sapiens, UniProt Q99538); assay: enzyme inhibition assay (AAN-AMC)
T1 chain: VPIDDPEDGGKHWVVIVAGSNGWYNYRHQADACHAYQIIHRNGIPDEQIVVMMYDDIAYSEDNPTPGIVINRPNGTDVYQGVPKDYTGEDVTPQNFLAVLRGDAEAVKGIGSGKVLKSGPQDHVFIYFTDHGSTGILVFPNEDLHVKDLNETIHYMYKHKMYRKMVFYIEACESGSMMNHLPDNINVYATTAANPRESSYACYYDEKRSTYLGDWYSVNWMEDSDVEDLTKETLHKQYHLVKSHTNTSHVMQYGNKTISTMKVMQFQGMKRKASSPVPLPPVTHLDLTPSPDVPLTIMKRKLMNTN

Molecule: Clitocypin (from UniProt Q9P4A2)
Ki [1]: 21.5 nM

B1: clitocypin 2 (protein)
chain: MASLEDGIYRLRAVTTHNPDPGVGGEYATVEGARRPVKAEPNTPPFFAAQAWQVTRNADGQYTIKYQGLNTPFEYGFSYDELEPNAPVIAGDPKEYILQLVPSTADVYIIRAPIQRIGVDVEVGVQGNTLVYKFFPVDGSGGDRPAWRFTRE
Ki [2]: 6690 nM

B2: clitocypin 2 (protein)
chain: B1 chain with A48E, A49Q, A51I
Ki [2]: 79 nM

The next lines start with the values.

Ki [2]: 147 nM
B3: macrocypin 1a (protein)
chain: GFEDGFYTILHLAEGQHPNSKIPGGMYASSKDGKDVPVTAEPLGPQSKIRWWIARDPQAGDDMYTITEFEIDNSIPGQWSRSPVETEVPVYLYDRIKAEETGYTCAWRIQPADHGADGVYHIVGNVRIGSTDWADLREEYGEPQVYMKPVPVIPNVYIPRWFILGYEE

Ki [2]: 2.18 nM
B4: macrocypin 1a (protein)
chain: B3 chain with E70R

Ki [2]: 183 nM
B5: macrocypin 1a (protein)
chain: B3 chain with E70R, R95A
